Source: patent US20250353894A1 (UNIVERSITAT ULM, published 2025)
Each block holds one binder with its values, some of them ahead of it.

What was measured:
complement protein C3b [1] = target: T1, complement protein C3b (UniProt P01024 749-1663; P01024 23-667); test: not named in the sentence (SPR on C3b by Table 1)
T1 construct: also called factor C3b
Description: (§1) A surface plasmon resonance (SPR)-based assay (Schmidt et al. (2013), Journal of Immunology 190:5712-5721) was used to determine the affinity of the engineered complement inhibitors for the key complement protein C3b. 1940 response units […] of C3b were coupled to the chip. The samples were run at 25 μl/min in a concentration series with the highest and the lowest concentrations being assayed in duplicate to probe reproducibility. To get an estimation of the KD value for other proteins the plot of response (during steady state) against the assayed concentration was fitted to a 1:1 steady state affinity model.

complement protein C3b [2] = target: T1, complement protein C3b; test: SPR, C3b coupled to chip, 1:1 steady state affinity model
Description: as §1

T1 sequence (P01024 749-1663 limits assumed, chain 1 of 2): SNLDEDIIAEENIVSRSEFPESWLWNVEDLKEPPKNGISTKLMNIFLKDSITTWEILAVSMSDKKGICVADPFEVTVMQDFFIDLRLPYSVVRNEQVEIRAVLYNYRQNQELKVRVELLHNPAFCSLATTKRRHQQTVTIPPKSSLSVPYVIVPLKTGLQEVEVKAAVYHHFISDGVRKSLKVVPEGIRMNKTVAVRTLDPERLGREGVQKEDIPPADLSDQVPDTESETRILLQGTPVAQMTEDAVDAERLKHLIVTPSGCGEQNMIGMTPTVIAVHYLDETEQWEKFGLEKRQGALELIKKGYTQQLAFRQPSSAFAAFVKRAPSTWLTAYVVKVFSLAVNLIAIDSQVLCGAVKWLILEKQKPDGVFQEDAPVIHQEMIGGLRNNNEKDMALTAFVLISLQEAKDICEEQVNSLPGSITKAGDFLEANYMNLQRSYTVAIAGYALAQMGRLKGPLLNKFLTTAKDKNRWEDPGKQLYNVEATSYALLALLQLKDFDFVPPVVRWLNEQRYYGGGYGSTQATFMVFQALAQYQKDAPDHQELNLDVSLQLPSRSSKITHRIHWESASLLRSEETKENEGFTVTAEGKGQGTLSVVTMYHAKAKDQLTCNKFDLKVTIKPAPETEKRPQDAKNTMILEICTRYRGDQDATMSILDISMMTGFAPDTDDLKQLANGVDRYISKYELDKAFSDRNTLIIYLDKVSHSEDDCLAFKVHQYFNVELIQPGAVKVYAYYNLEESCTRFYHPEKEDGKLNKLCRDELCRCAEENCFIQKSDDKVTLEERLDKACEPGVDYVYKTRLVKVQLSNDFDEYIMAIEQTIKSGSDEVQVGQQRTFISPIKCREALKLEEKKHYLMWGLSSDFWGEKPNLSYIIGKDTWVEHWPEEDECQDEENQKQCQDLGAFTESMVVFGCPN
T1 sequence (P01024 23-667 limits assumed, chain 2 of 2): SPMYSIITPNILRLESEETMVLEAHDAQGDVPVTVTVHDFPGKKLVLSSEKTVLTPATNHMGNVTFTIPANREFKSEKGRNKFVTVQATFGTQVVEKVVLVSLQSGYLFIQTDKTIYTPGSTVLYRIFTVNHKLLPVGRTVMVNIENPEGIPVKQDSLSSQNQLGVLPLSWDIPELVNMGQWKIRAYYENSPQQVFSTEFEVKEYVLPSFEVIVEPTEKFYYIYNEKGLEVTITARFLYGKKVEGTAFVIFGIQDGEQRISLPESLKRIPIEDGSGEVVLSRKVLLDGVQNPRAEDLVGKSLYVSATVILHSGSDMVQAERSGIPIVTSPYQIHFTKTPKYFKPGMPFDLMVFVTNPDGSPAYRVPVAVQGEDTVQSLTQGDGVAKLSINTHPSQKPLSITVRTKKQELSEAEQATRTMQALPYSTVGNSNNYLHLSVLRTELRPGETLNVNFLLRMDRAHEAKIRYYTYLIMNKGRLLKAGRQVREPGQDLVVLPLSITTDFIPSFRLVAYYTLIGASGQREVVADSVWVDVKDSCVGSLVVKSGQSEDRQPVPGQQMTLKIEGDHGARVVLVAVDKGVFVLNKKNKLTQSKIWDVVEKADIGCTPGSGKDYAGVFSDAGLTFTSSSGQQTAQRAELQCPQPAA

B1: DAF(1-4)FH(19-20)CR1(15-17) (other)
chain: DCGLPPDVPNAQPALEGRTSFPEDTVITYKCEESFVKIPGEKDSVICLKGSQWSDIEEFCQRSCEVPTRLNSASLKQPYITQNYFPVGTVVEYECRPGYRREPSLSPKLTCLQNLKWSTAVEFCKKKSCPNPGEIRNGQIDVPGGILFGATISFSCNTGYKLFGSTSSFCLISGSSVQWSDPLPECREIYCPAPPQIDNGIIQGERDHYGYRQSVTYACNKGFTMIGEHSIYCTVNNDEGEWSGPPPECRGGGGGGGGGGGGGGGKCGPPPPIDNGDITSFPLSVYAPASSVEYQCQNLYQLEGNKRITCRNGQWSEPPKCLHPCVISREIMENYNIALRWTAKQKLYSRTGESVEFVCKRGYRLSSRSHTLRTTCWDGKLEYPTCAGGGGGGGHCQAPDHFLFAKLKTQTQASDFPIGTSLKYECRPEYYGRPFSITCLDNLVWSSPKDVCKRKSCKTPPDPVNGMVHVITDIQVGSRIQYSCTTGHRLIGHSSAECILSGNTAHWSTKPPICQRIPCGLPPTIANGDFISTNRENFHYGSVVTYRCNLGSRGRKVFELVGEPSIYCTSNDDQVGIWSGPAPQCII
notes: Multi-domain fusion polypeptide produced in Pichia pastoris; also called triple I; triple-I
- Kd (complement protein C3b [1]): 20 nM
- Kd (complement protein C3b [2]): 22.8 nM

B2: DAF(1-4)FH(19-20) long linker (other)
chain: DCGLPPDVPNAQPALEGRTSFPEDTVITYKCEESFVKIPGEKDSVICLKGSQWSDIEEFCQRSCEVPTRLNSASLKQPYITQNYFPVGTVVEYECRPGYRREPSLSPKLTCLQNLKWSTAVEFCKKKSCPNPGEIRNGQIDVPGGILFGATISFSCNTGYKLFGSTSSFCLISGSSVQWSDPLPECREIYCPAPPQIDNGIIQGERDHYGYRQSVTYACNKGFTMIGEHSIYCTVNNDEGEWSGPPPECRGGGGGGGGGGGGGGGKCGPPPPIDNGDITSFPLSVYAPASSVEYQCQNLYQLEGNKRITCRNGQWSEPPKCLHPCVISREIMENYNIALRWTAKQKLYSRTGESVEFVCKRGYRLSSRSHTLRTTCWDGKLEYPTCA
notes: Fusion protein with an oligo-glycine linker; also called DAF(1-4)FH(19-20)-LL
- Kd (complement protein C3b [2]): 175 nM

B4: CR1(1-3)FH(19-20)CR1(15-17) (other)
chain: QCNAPEWLPFARPTQLTDEFEFPIGTYLNYECRPGYSGRPFSIICLKNSVWTGAKDRCRRKSCRNPPDPVNGMVHVIKGIQFGSQIKYSCTKGYRLIGSSSATCIISGDTVIWDQETPICDRIPCGLPPTITNGDFISTNRENFHYGSVVTYRCNPGSGGRKVFELVGEPSIYCTSNDDQVGIWSGPAPQCIIGGGGGGGGGGGGGGKCGPPPPIDNGDITSFPLSVYAPASSVEYQCQNLYQLEGNKRITCRNGQWSEPPKCLHPCVISREIMENYNIALRWTAKQKLYSRTGESVEFVCKRGYRLSSRSHTLRTTCWDGKLEYPTCAGGGGGGGHCQAPDHFLFAKLKTQTQASDFPIGTSLKYECRPEYYGRPFSITCLDNLVWSSPKDVCKRKSCKTPPDPVNGMVHVITDIQVGSRIQYSCTTGHRLIGHSSAECILSGNTAHWSTKPPICQRIPCGLPPTIANGDFISTNRENFHYGSVVTYRCNLGSRGRKVFELVGEPSIYCTSNDDQVGIWSGPAPQCII
notes: Multi-domain fusion polypeptide produced in Pichia pastoris
- Kd (complement protein C3b [1]): 40 nM
- Kd (complement protein C3b [2]): 40.6 nM

B6: DAF(1-4)FH(19-20) short linker (other)
chain: DCGLPPDVPNAQPALEGRTSFPEDTVITYKCEESFVKIPGEKDSVICLKGSQWSDIEEFCNRSCEVPTRLNSASLKQPYITQNYFPVGTVVEYECRPGYRREPSLSPKLTCLQNLKWSTAVEFCKKKSCPNPGEIRNGQIDVPGGILFGATISFSCNTGYKLFGSTSSFCLISGSSVQWSDPLPECREIYCPAPPQIDNGIIQGERDHYGYRQSVTYACNKGFTMIGEHSIYCTVNNDEGEWSGPPPECRGPGGGKCGPPPPIDNGDITSFPLSVYAPASSVEYQCQNLYQLEGNKRITCRNGQWSEPPKCLHPCVISREIMENYNIALRWTAKQKLYSRTGESVEFVCKRGYRLSSRSHTLRTTCWDGKLEYPTCAKR
notes: Fusion protein; the two domains are joined directly; also called DAF(1-4)FH(19-20)-SL
- Kd (complement protein C3b [2]): 125 nM

Continued by falling Kd (complement protein C3b [2]), values first:

- Kd (complement protein C3b [2]): 11500 nM
B7: DAF(1-4) (other)
chain: DCGLPPDVPNAQPALEGRTSFPEDTVITYKCEESFVKIPGEKDSVICLKGSQWSDIEEFCQRSCEVPTRLNSASLKQPYITQNYFPVGTVVEYECRPGYRREPSLSPKLTCLQNLKWSTAVEFCKKKSCPNPGEIRNGQIDVPGGILFGATISFSCNTGYKLFGSTSSFCLISGSSVQWSDPLPECREIYCPAPPQIDNGIIQGERDHYGYRQSVTYACNKGFTMIGEHSIYCTVNNDEGEWSGPPPECR
notes: Produced in Pichia pastoris; also called soluble DAF; sDAF

- Kd (complement protein C3b [2]): 4670 nM
B5: FH(19-20) (other)
chain: KCGPPPPIDNGDITSFPLSVYAPASSVEYQCQNLYQLEGNKRITCRNGQWSEPPKCLHPCVISREIMENYNIALRWTAKQKLYSRTGESVEFVCKRGYRLSSRSHTLRTTCWDGKLEYPTCA
notes: also called CCPs 19 and 20 of Factor H

- Kd (complement protein C3b [2]): 954 nM
B3: CR1(15-17) (receptor)
chain: not shown
notes: Produced in Pichia pastoris; also called CCPs 15 to 17 of human CR1
